Measured values from publication PMC3913039.

Target: recombinant 3x-FLAG-tagged human Sec61α, wild type (human) (UniProt P61619)
Assay: co-IP; Sf21 microsomes with FLAG-Sec61α and Sec61γ solubilised with 1% Deoxy BigChap, anti-FLAG immunoprecipitation, immunoblot beside canine microsomes

Sequence of UniProt P61619 (P61619 whole entry): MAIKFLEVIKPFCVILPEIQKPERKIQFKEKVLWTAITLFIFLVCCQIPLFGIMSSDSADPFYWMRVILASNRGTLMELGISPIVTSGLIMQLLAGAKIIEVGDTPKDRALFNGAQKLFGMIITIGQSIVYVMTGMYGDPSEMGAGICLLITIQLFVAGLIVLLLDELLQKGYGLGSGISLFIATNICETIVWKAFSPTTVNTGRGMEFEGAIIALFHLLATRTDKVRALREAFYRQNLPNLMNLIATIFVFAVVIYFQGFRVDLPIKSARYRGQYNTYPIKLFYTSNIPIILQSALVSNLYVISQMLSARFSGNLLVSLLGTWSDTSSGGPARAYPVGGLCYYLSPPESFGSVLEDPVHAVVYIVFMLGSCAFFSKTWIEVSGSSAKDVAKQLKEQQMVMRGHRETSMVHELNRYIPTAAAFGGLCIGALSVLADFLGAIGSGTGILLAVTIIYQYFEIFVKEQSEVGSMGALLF

Substance: recombinant untagged human Sec61γ (from UniProt P60059 1-68) (natural protein; other documents disagree on this pair)
- stoichiometry N: 1
